Measured values reported in the nanobody polyreactivity screen of Harvey et al. (2022).

Test: yeast display, Sf9 membrane polyspecificity reagent, FACS + sequencing; frameworks hold sequencing errors
Method in brief: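 Nanobodies from a synthetic yeast display library (Saccharomyces cerevisiae BJ5465), induced 36–48 hours with galactose, were stained 1 hour at 4 °C with 10% biotinylated, detergent-solubilized Sf9 membrane reagent, enriched on streptavidin microbeads, then FACS-sorted. Anti-HA (expression) and streptavidin (reagent binding) fluorescence set low and high (top ~1%) gates. Polyreactivity labels come from the gate of origin. Genes were colony-PCR amplified, MiSeq 2 × 250 sequenced and filtered by CDR length.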

Sequence | polyreactivity (PSR sort gate)
QVQLVESGGGLVQAGGILRLSCAASGSIFYRYAMGWYRPAPGKERELVAAINWSGGITYYADSEKGRFTISRDNAKITFYLQMISLKPEDTAVYYCAARTHVYNWGYYYWGQGTQVTVSS | high polyreactivity
QVQLVESGGGLVQAGGSLRLSCAASGSIFLFNAMGWNRQAPGKERELVAANTSSGTRTYYADSVKGRFTISRDNAKNTVYLQMNSMKPEDTAVYYCNAVGPVDSYHRYYYWGQGTQVTVSS | low polyreactivity
QVQLQESGGGLVQAGGSLRLTCAASGTISQEDWLGWYLQAPGKEREFVAAIGLGSNTNYADSLKGRFTISRDNAQNTVYLQMNSLKAEYTAVYYCAVSVWQYSDHVYRGQGTQVTVSS | low polyreactivity
QVQLVESGGGLVQAGGSLRLSCAASGSTLVVNGMGWYRQAPGKERELVASISSDGSTNYADSVKGRFTISRDNAKNTVYLQMNSLKPEDTAVYYCASDEGTGQASLSSNLYDYWGQGTQVTVSS | low polyreactivity
QDQLVESGGGLVQAGGSLRLSCAASGRTFRAYAMGWSRQAPGKERELVASISRRGGSTYYADSVKGRFTISRDNAKNTDYLQMNSLNPEDTAVYYCAASDKYLQYDDWGQGTEVTVSS | high polyreactivity
QVQLVESGGGLVQAGGSLRLSCAASGRIFTRYGMGWYRQAPGKEREFVAGISWSGGSTFYADSVKGRFTISRDNAKNTVYLQMHSLKPEDTAVYYCAARLYLRRPYEYWGQGTQVTVSS | high polyreactivity
QVQLVESGGGLVQAGGSLRLSCAASGSIFYPYAMGWSSKAPRKERELVARISSAGGTYYADSVKGRFTISRDNAKNTVYLQMNSLKPEDTAVYYCAAQARYRYYYWGQGTQVTVSS | high polyreactivity
QVQLVESGGGLVQAGGSLRLSCAASGFTFRYNAMGWYRQAPGKERELVAAISRGTITNYADSVKGRFTISRDNAKNTVYLQMNSLKPEDTAVYYCAARYPGHFRFYYWGQGTQVTVSS | high polyreactivity
QVQLVESGGGLVQAGGSLRLSCAASGSTFYGNAMGWSRQAPGKERELVAAIRWRGGRTYYADSVKGRFTISRDNAKNTVYLQMNSLKPEDTAVYYCNALPGVSHTQYDRVGYWGQGTQVTVSS | high polyreactivity
QVQLVESGGGLVQAGGSLRLSCAASGSIFYPYAMGWYRQAPGKERELVASISSGGSTYYADSVKGRFTISRDNGKNTVYLQMISLKTDDTAVYYCIAVFSTFTGEYYWGKGTQVTVSS | high polyreactivity
QVQLVESGGGLVQAGGSLRLSCAASGSIFYYYSMGWYRQAPGKERELVARITSGGTNYADSVKGRFTISRDNAKNTVYLQMNSLKPEDTAVYYCNADHSTWLYKRYDYWGQGTQVTVSS | low polyreactivity
QDQLVESGGGLVQAGGSLRLSCAASGFTFSHNVMGWSRQAPGKERELVAAITWSGDGTYYADSVKGRFTISRDNAKKSVYFQMNSLKTEDTAVYYCNARYGKEYDYWGQGTQVTVSS | low polyreactivity
QVQLVESGGGLVQAGGSLRLSCAASGSIFHPNAMGWYRQAPGKERELVAAITQSGATTYYADSVKGRFTISRDNAKNTVYLQMNSLKPEDTAVYYCAAEFTYGHHDYWGQGTQVTVSS | low polyreactivity
QVQLVESGGGLVQAGGSLRLSCAASGSIFFSYAMGWYRQAPGKERELVASISSGVSTNYADSEKGRFTISRDNAKNTVYLQMNSLKPEDTAVYYFAAYYRGWSSSYWYPAYNYWGQGTQVTVSS | low polyreactivity
QVQLEESGGGLVQAGGSLRLSCAASGSIFGANAMAWYRQAPGKERDLVAAITTSGGSTFYADSVKGRFTISRDNAKNTVYLQMNCLKPEDNAVYYCAAEWVYSIKSVYIYEMYYWGQGTQVTVSS | low polyreactivity
QVQLVESGGGLVQAGGSLRLSCAASGFTFRKYTMGWYRQAPGKERELVAAISSGFSTNYADSVKGRFTISRDNAKNSVYLQMNSLKPEDTAVYYCAARGGYYQGRYKYGYWGQGTQVTVSS | high polyreactivity
QVQLVESGGGLVQAGGSLRLSCAASGSIFVVNAMGWYRQAPGKERELVAAISDSGDRTYYADSVKGRFTISRDNAKNTVYLQMNSLKPEDTAVYYCAADSIQTTAIYDYWGQGTQVTVSS | low polyreactivity
QVQLVESGGGLVQAGGSLRLSCAASGFTIYGYVMGWYRQAPGKVRELVAAISYSAGRTYYADSVKGRFTISRDNAKNTVYLQMNSLKPEDTAVYYCNAPSVGAAFDYCGQGTQVTVSS | high polyreactivity
QVQLVESGGGLVQAGGSLRLSCAASGSIFVQNAMGWYRQAPGKETELVAVINSGDSTNYADSVKGRFTISRDNAKNTVYLQMNSLKPEDTEVYYCAVDDVSYYYLRAYNYELSWYGSGLDYWGQGTQVTVSS | low polyreactivity
QVQLVESGGGLVQAGGSLRLSCAASGRTFKYNAMGWYRQAPGKERELVATISGSGGRTYYADSVKGRFTISRDNAKNTVYLQMNSLKPEDTAVYYCNAPRVKWLDWGQGTQVTVSS | high polyreactivity
QVQLVESGGGLVQAGGSLRLSCAASGSTFQEYAMGWYRQAPGKERELVASIRWSGGRTYYADSVKGRFTISRDNAKNTVYLQMNSLKPEDTAVYYCNKVWVYAVTPSSWYKYGSWGQGTQVTVSS | low polyreactivity
QVQLVESGGGLVQAGGSLRLTCAASGSTFKYYAMGWYRQAPGKERELVAAIDWNGGRTYYADSVKGRFTISRDNAKNTVYLQMNSLKPEDTAVYYCAKLGRAAQGNYYWGQGTQVTVSS | high polyreactivity

Sequence | polyreactivity (PSR sort gate)
QVQLVESGGGLVQAGGSLRLSCAASGSTFGPYAMGWYRQAPGKEREMVAAISKTGGRTYYADSVKGRFTISRDNAKNTVYLQMHSLKPEDTAVYYCAADVGTAQSTYGYWGQGTQVTVSS | high polyreactivity
QVQLVESGGGLVQAGGILRISCAASGFIFYPYAMGWYRQAPGKERELVATIDGGGSTYYADSVKGRFTISRDNAKNTVYLQMNSLKPEDSAVYYCDASQWSNYDNWGQGNQVTVSS | low polyreactivity
QVQLVESGGGLVQAGGSLRLSCAASGRTFRDYVMGWYRPAPGKERELVAAISTRGASTYYADSVKGRFTISRDNAKNTVYLQMNSLKPEDTAVYYCAARSTRRGNEYDYWGQGTQVTVSS | high polyreactivity
QVQLVESGGGLVQAGGSLRLSCAASGSTLFYNDMGWYRQAPGKEREFVAAIRSNDGSTYYADSVKGRFTISRDNAKNTVYLQMKSLKPEDTAVYYCNKDVWDGYDWPEFDYWGQGTQVTVSS | low polyreactivity
QVQLVESGGGLDQAGGSLRLTCAASGSIFRWYAMGWYRQAPGKERELVAAISRGASTNYADSVKGRFTISRDNAKNTVYLKMNSLKPEDTAVYFCAKRTTRLATYDYWGQGTQVTVSS | high polyreactivity
QVQLVESGGGLVQSGGSLRLSCAASGRTFGYYDMGWYRQAPGKERELVASITRRGGSTYYADSVKGRFTISRDNAKNTVYLQMNSLKPEDTAGYYCAARYKARYEPARYDYWGQGTQVTVSS | high polyreactivity
QVQLVESGGGLVQAGGSLRLSCAASGRTFGRNAMGWYRQAPGKERELVAAITWSGVTTYYADSVKGRFTISRDNAKNTVYLQMNSLKPEDTAVYYCATGTLYSDGAIYGYWGQGTQVTVSS | low polyreactivity
QVQLVESGGGLVQAGGSLRLSCAASGGTFRRYAMGWYRQAPGKERELVAAISWTGGSTYYADSVKGRFTISRDNAKNTVYLQMNSLKPEDTAVYYCAAVGSSSSKGGYWGQGTQVTVSS | high polyreactivity
QVQLVESGGGLVQAGGSLRLSCAASGYIFSYYAMGWYRQAPGKEREFVAAIRWRGGSTYYADSVKGRFTISRDYAKNTVYLQMNSLKPEDTEVYYCAAGPATSYYWGQGTQVTVSS | high polyreactivity
QVQLVESGGGLVQAGGSLRLSCAASGFIFDSNAMGWYRQAPGKERELVAAISRSGASTYYADSVKGRFTISRDNAKNTVYLQMNSLKPEDTSVYYCAASVRKIHDRFYYWGQGTQVTVSS | high polyreactivity
QVLLVESAAGLVQAGGSLRLSCAASGSTFQGNAMGGYRKAPGKERELVAAISRSGGSTYADSVKGRFTISRDNAKNTVYLQLNSLKPEDTAVYYCAAYSGVGYLWFDYWGQGTQVTVSS | low polyreactivity
QVQLVESGGGLVQAGGSLRLSCAASGLTFVLYAMGWYRQAPGQERELVAAISKRGGSTNYADSVKGRFTISRDNAKNTVYLQMNSLKPADTAVYYCAPRYPQGGTGKATYVRSRSGYWGQGTQVTVSS | high polyreactivity
QVQLVESGGGLVQAGGSLRLSCAASGSTFSGYAMGWYRQAPGKERELVAAITSSGGRTYYADSVKGRFTISRDNAKNTVYLQMNSLKPEDTAVYYCAALYYHEYDYWGQGTQVTVSS | low polyreactivity
QVQHVESGGGLVQAGGSLRLSCAASGSIIYRNAMGWSRQPPGKERELVAAISWSAARTYYADSVKGRFTISRDNAKNTVYLQMNSQKPEDTAVYYCNKAARFTSHQGYDSWGQGTQVTVSS | high polyreactivity
QDQLVESGGGLVQAGGSLRLSCAASGGTFGGYAMGWYRQAPGKERELVAAITYSGGSTYYADSVKGRFTISRDNAKNTVYLQMNSLKPEDTAVYYCAQYHYRYYYWGQGTQVTVSS | high polyreactivity
QVQLVESGGGLVQAGGSLRLICAASGSILNWYAMGWYRQAPGKERELVAAINRGTGTYYADSVKGRFTISRDNAKNTVYLQMISLKTEDTAVYYCAAEWYVYDFEFYYWGQGTQVTVSS | high polyreactivity
QVQLVESGGGLVQAVGSLRLSCAASGSTLSFNAMGWYRQAPGKERELVAGITYSGGSTYYADSVKGRFTISRDNAKNTVYLQMNSLKPEDTAVYYCNKASGVYYGHLDYWGQGTQVTVSS | low polyreactivity
QVQLVESGGGLVQAGGSLRLSCAASGSTFYINAMGWSRQAPGKEREFVAAIDWGGGTTYYADSVKGRFTISRDNAMNTVYLQMNRLKPEDTAVYYCAAERNYWSTQYYYWGQGTQVTVSS | high polyreactivity
QVQLVESGGGLVQAGGSLRLSCAASGSIFYYNARGGYRQAPGKERELVATIRTSGGSTYYADSVKGRFTISRDNAMNTVYVQLNSLKPEDTAVYYCAARDLRKLYSRYPYYYWGQGTQVTVSS | high polyreactivity
QVQLVESRGGLFQAGGSLRLSCAASGFIFRDNAMGWYRQAPGKERELVAAISKSGGRTYYADSVKGRFTISRDNAKNTVYLQMNSLKPEDTAVYYCAKVRYQGNGGYYWGQGTQVTVSS | high polyreactivity
QVQLVESGGGLVQAGGSLRLSCAASGSTFRRYAMGWYRQAPGKERELGAAISRSGGTTYYADSVKGRFTISRDNAKNTVYLQMNSLKPEDTAVYYCNARYPVVRYDYWGQGTQVTVSS | high polyreactivity
